Source: paper PMC2897852 (PLoS ONE, 2010)

B1: tag-free FtsZ (M. tuberculosis FtsZ, polyhistidine tag cleaved with thrombin) (natural protein)
chain: MTPPHNYLAVIKVVGIGGGGVNAVNRMIEQGLKGVEFIAINTDAQALLMSDADVKLDVGRDSTRGLGAGADPEVGRKAAEDAKDEIEELLRGADMVFVTAGEGGGTGTGGAPVVASIARKLGALTVGVVTRPFSFEGKRRSNQAENGIAALRESCDTLIVIPNDRLLQMGDAAVSLMDAFRSADEVLLNGVQGITDLITTPGLINVDFADVKGIMSGAGTALMGIGSARGEGRSLKAAEIAINSPLLEASMEGAQGVLMSIAGGSDLGLFEINEAASLVQDAAHPDANIIFGTVIDDSLGDEVRVTVIAAGFDVSGPGRKPVMGETGGAHRIESAKAGKLTSTLFEPVDAVSVPLHTNGATLSIGGDDDDVDVPPFMRR
notes: also called FtsZTB
B2: FtsZ D210G, tag-free (pRR7) (natural protein)
chain: MTPPHNYLAVIKVVGIGGGGVNAVNRMIEQGLKGVEFIAINTDAQALLMSDADVKLDVGRDSTRGLGAGADPEVGRKAAEDAKDEIEELLRGADMVFVTAGEGGGTGTGGAPVVASIARKLGALTVGVVTRPFSFEGKRRSNQAENGIAALRESCDTLIVIPNDRLLQMGDAAVSLMDAFRSADEVLLNGVQGITDLITTPGLINVDFAGVKGIMSGAGTALMGIGSARGEGRSLKAAEIAINSPLLEASMEGAQGVLMSIAGGSDLGLFEINEAASLVQDAAHPDANIIFGTVIDDSLGDEVRVTVIAAGFDVSGPGRKPVMGETGGAHRIESAKAGKLTSTLFEPVDAVSVPLHTNGATLSIGGDDDDVDVPPFMRR
B3: FtsZ G103S, tag-free (pRR3) (natural protein)
chain: MTPPHNYLAVIKVVGIGGGGVNAVNRMIEQGLKGVEFIAINTDAQALLMSDADVKLDVGRDSTRGLGAGADPEVGRKAAEDAKDEIEELLRGADMVFVTAGESGGTGTGGAPVVASIARKLGALTVGVVTRPFSFEGKRRSNQAENGIAALRESCDTLIVIPNDRLLQMGDAAVSLMDAFRSADEVLLNGVQGITDLITTPGLINVDFADVKGIMSGAGTALMGIGSARGEGRSLKAAEIAINSPLLEASMEGAQGVLMSIAGGSDLGLFEINEAASLVQDAAHPDANIIFGTVIDDSLGDEVRVTVIAAGFDVSGPGRKPVMGETGGAHRIESAKAGKLTSTLFEPVDAVSVPLHTNGATLSIGGDDDDVDVPPFMRR

molecular target: T1, His-ClpX (M. tuberculosis ClpX, pRD21) (M. tuberculosis, UniProt P9WPB9 1-426); experiment: pull-down; conditions: both partners purified
T1 construct: also called his-clpXTB; recombinant His-ClpX fusion protein
T1 sequence (P9WPB9 whole entry, the tested form may be a part): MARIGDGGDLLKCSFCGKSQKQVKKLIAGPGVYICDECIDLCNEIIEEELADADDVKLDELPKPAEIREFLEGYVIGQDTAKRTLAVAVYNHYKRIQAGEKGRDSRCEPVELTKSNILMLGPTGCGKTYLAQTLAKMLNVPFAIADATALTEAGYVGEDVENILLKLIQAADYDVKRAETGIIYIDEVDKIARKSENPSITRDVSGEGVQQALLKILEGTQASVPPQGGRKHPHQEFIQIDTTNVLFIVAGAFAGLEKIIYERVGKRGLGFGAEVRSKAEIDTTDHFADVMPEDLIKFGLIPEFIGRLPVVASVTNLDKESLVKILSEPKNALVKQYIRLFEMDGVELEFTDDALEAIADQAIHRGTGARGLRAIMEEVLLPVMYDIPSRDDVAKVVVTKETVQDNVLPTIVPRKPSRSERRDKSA

Row | Binder | binding result
1 | B1 | binds
2 | B2 | binds
3 | B3 | binds
